B1: Poly(rC)-binding protein 1, residues 278 to 350; numbered along this chain, Q15365 (parent)
chain: TQTTHELTIPNNLIGCIIGRQGANINEIRQMSGAQIKIANPVEGSSGRQVTITGSAASISLAQYLINARLSSE

± gives the uncertainty stated by the source.

The values below come from the Human Domainome abundance scans (Beltran et al. 2025).

Variants of B1 are the subject of this data set. Kind of data set: abundance fitness (aPCA) (normalised: wild type 0, dead -1); higher = more abundant; growth selection in yeast, the domain comes from the species named. Particulars: Homo sapiens.
As for T51W, the abundance fitness is -0.063 ± 0.058.

Regarding T51Y, the abundance fitness is -0.07 ± 0.099.

Regarding T51V, the abundance fitness is -0.027 ± 0.033.

Take S55W: the abundance fitness is -0.575 ± 0.065.

In the case of S55C, the abundance fitness is -0.252 ± 0.069.

For S55F, the abundance fitness is -0.551 ± 0.33.

Regarding S55H, the abundance fitness is -0.047 ± 0.085.

On to S55E, for which the abundance fitness is -0.086 ± 0.034.

On to S55N, for which the abundance fitness was -0.017 ± 0.07.

Turning to S55K, the abundance fitness was -0.25 ± 0.046.

As for S55Q, the abundance fitness was -0.336 ± 0.051.

For the variant S55A, the abundance fitness was -0.239 ± 0.042.

S55I: the abundance fitness was -0.882 ± 0.31.

Turning to S55T, the abundance fitness is 0.001 ± 0.047.

On to S55V, for which the abundance fitness is -0.396 ± 0.056.

As to S55G, the abundance fitness is -0.21 ± 0.034.

In the case of S55D, the abundance fitness is -0.13 ± 0.068.

Turning to S55P, the abundance fitness is -0.102 ± 0.049.

With S55L, the abundance fitness was -0.786 ± 0.1.

Take S55Y: the abundance fitness is -0.119 ± 0.17.

S55M: the abundance fitness is -0.536 ± 0.1.

As to I52T, the abundance fitness was -0.739 ± 0.15.

Regarding I52C, the abundance fitness was -1.03 ± 0.27.

Take I52P: the abundance fitness was -0.698 ± 0.15.

In the case of I52L, the abundance fitness is -0.039 ± 0.037.

Turning to I52G, the abundance fitness was -1.05 ± 0.1.

Turning to I52Y, the abundance fitness was -1.09 ± 0.39.

For the variant I52S, the abundance fitness was -0.574 ± 0.09.

Turning to I52M, the abundance fitness is -0.225 ± 0.053.

As for I52E, the abundance fitness is -0.732 ± 0.097.

For the variant I52R, the abundance fitness is -0.996 ± 0.1.

Consider I52H, for which the abundance fitness was -0.927 ± 0.29.

For I52F, the abundance fitness is -0.694 ± 0.26.

I52W: the abundance fitness was -1.02 ± 0.16.

For I52K, the abundance fitness was -0.631 ± 0.098.

Consider I52D, for which the abundance fitness was -0.583 ± 0.25.

Take I52N: the abundance fitness is -0.878 ± 0.47.

On to I52V, for which the abundance fitness is -0.218 ± 0.037.

As for A57D, the abundance fitness turned out to be 0.074 ± 0.071.

For the variant A57W, the abundance fitness was -0.247 ± 0.055.

Take A57M: the abundance fitness was -0.204 ± 0.069.

With A57G, the abundance fitness was -0.126 ± 0.037.

Take A57L: the abundance fitness is -0.327 ± 0.055.

Turning to A57P, the abundance fitness is -0.02 ± 0.053.

A57E: the abundance fitness came to 0.088 ± 0.05.

With A57N, the abundance fitness worked out at 0.061 ± 0.086.

Take A57V: the abundance fitness is -0.243 ± 0.046.

A57T: the abundance fitness was -0.125 ± 0.056.

In the case of A57Q, the abundance fitness was 0.068 ± 0.065.

For the variant A57R, the abundance fitness was determined as 0.059 ± 0.035.

Turning to A57Y, the abundance fitness was -0.194 ± 0.12.

With A57C, the abundance fitness is -0.035 ± 0.077.

A57F: the abundance fitness was -0.096 ± 0.12.

A57I: the abundance fitness was -0.127 ± 0.14.

As to A57K, the abundance fitness turned out to be 0.116 ± 0.051.

For the variant A57H, the abundance fitness was determined as 0.051 ± 0.11.

Consider A57S, for which the abundance fitness was found to be 0.016 ± 0.042.

For the variant A56R, the abundance fitness is -0.039 ± 0.035.

As to A56Y, the abundance fitness is -0.245 ± 0.091.

On to A56L, for which the abundance fitness stood at 0.026 ± 0.051.

Turning to A56H, the abundance fitness was -0.027 ± 0.089.

With A56G, the abundance fitness is -0.077 ± 0.034.

Take A56D: the abundance fitness is -0.029 ± 0.06.

In the case of A56N, the abundance fitness was -0.078 ± 0.078.

For the variant A56T, the abundance fitness is 0.026 ± 0.066.

Consider A56F, for which the abundance fitness is 0.032 ± 0.11.

With A56E, the abundance fitness was -0.044 ± 0.047.

With A56C, the abundance fitness is -0.102 ± 0.07.

As for A56I, the abundance fitness is -0.024 ± 0.11.

With A56W, the abundance fitness is -0.269 ± 0.052.

For A56V, the abundance fitness was -0.072 ± 0.047.

Turning to A56K, the abundance fitness turned out to be 0.029 ± 0.055.

In the case of A56Q, the abundance fitness is 0.076 ± 0.062.

For the variant A56M, the abundance fitness was determined as 0.081 ± 0.062.

For the variant I59Q, the abundance fitness was -0.421 ± 0.08.

For I59T, the abundance fitness is -0.008 ± 0.044.

On to I59G, for which the abundance fitness is -0.66 ± 0.051.

Turning to I59K, the abundance fitness was -0.323 ± 0.092.

Consider I59N, for which the abundance fitness is -0.423 ± 0.22.

Turning to I59C, the abundance fitness is 0.098 ± 0.068.

As for I59V, the abundance fitness was 0.063 ± 0.047.

In the case of I59A, the abundance fitness was -0.044 ± 0.035.

For I59P, the abundance fitness is -0.764 ± 0.098.

Consider I59L, for which the abundance fitness is -0.355 ± 0.061.

Regarding I59Y, the abundance fitness is -0.93 ± 0.42.

For I59D, the abundance fitness was -0.567 ± 0.29.

Regarding I59M, the abundance fitness was -0.477 ± 0.12.

Regarding I59W, the abundance fitness was -0.752 ± 0.082.

Consider I59E, for which the abundance fitness was -0.626 ± 0.081.

Consider S58G, for which the abundance fitness was -0.227 ± 0.035.

Regarding S58E, the abundance fitness came to 0.052 ± 0.038.

S58D: the abundance fitness amounted to 0.009 ± 0.068.

Take S58F: the abundance fitness was -0.149 ± 0.14.

Turning to S58N, the abundance fitness was 0.009 ± 0.14.

As to S58M, the abundance fitness was -0.354 ± 0.06.

As for S58T, the abundance fitness was -0.241 ± 0.051.

Turning to S58I, the abundance fitness was -0.988 ± 0.43.

Consider S58K, for which the abundance fitness was -0.3 ± 0.06.

Consider S58L, for which the abundance fitness is -0.801 ± 0.076.

For S58C, the abundance fitness is -0.241 ± 0.076.

With S58W, the abundance fitness was -0.949 ± 0.11.

Regarding S58Q, the abundance fitness came out at 0.08 ± 0.045.

Turning to S58V, the abundance fitness is -0.568 ± 0.052.

For the variant S58P, the abundance fitness is -0.47 ± 0.082.

As for G54C, the abundance fitness was -0.85 ± 0.18.

With G54A, the abundance fitness is -0.916 ± 0.083.

Regarding G54D, the abundance fitness is -0.834 ± 0.19.

G54E: the abundance fitness is -0.838 ± 0.13.

Consider G54P, for which the abundance fitness is -0.805 ± 0.12.

Turning to G54W, the abundance fitness was -0.912 ± 0.14.

On to G54Y, for which the abundance fitness is -1.08 ± 0.46.

With G54Q, the abundance fitness is -1.11 ± 0.29.

For G54L, the abundance fitness was -0.877 ± 0.12.

Turning to G54M, the abundance fitness was -1.02 ± 0.26.

With G54S, the abundance fitness is -0.881 ± 0.11.

On to G54F, for which the abundance fitness is -0.507 ± 0.25.

On to G54T, for which the abundance fitness was -0.854 ± 0.12.

As for G54K, the abundance fitness was -0.804 ± 0.18.

In the case of G54H, the abundance fitness was -0.465 ± 0.21.

For the variant L61V, the abundance fitness is -0.052 ± 0.041.

In the case of L61G, the abundance fitness is -0.504 ± 0.044.

On to L61W, for which the abundance fitness is -0.238 ± 0.054.

Regarding L61S, the abundance fitness was determined as 0.084 ± 0.039.

Take L61M: the abundance fitness was found to be 0.001 ± 0.065.

L61C: the abundance fitness was 0.022 ± 0.063.

As for L61I, the abundance fitness was 0.012 ± 0.089.

Consider L61P, for which the abundance fitness is -0.943 ± 0.16.

Regarding L61T, the abundance fitness was 0.139 ± 0.044.

Consider L61R, for which the abundance fitness is 0.253 ± 0.033.

As for L61K, the abundance fitness stood at 0.266 ± 0.039.

L61D: the abundance fitness was found to be 0.02 ± 0.07.

Take L61F: the abundance fitness was -0.074 ± 0.097.

With L61Q, the abundance fitness came out at 0.111 ± 0.044.

Regarding L61N, the abundance fitness was -0.278 ± 0.13.

L61E: the abundance fitness is 0.091 ± 0.033.

Take T53M: the abundance fitness was -0.063 ± 0.056.

For T53S, the abundance fitness is -0.041 ± 0.042.

As to T53A, the abundance fitness was -0.126 ± 0.036.

Regarding T53N, the abundance fitness is -0.385 ± 0.16.

With T53R, the abundance fitness is -0.007 ± 0.031.

On to T53D, for which the abundance fitness was -0.51 ± 0.11.

As for T53Q, the abundance fitness is -0.075 ± 0.053.

As to T53C, the abundance fitness is -0.137 ± 0.071.

For T53G, the abundance fitness was -0.308 ± 0.036.

Consider T53V, for which the abundance fitness was -0.118 ± 0.039.

As for T53I, the abundance fitness is -0.125 ± 0.12.

As to T53W, the abundance fitness was -0.274 ± 0.049.

Take T53K: the abundance fitness was 0.075 ± 0.049.

T53H: the abundance fitness is -0.491 ± 0.15.

On to T53Y, for which the abundance fitness is -0.129 ± 0.13.

Consider T53P, for which the abundance fitness was -0.777 ± 0.12.

For T53F, the abundance fitness was -0.321 ± 0.12.

In the case of S60F, the abundance fitness was -0.102 ± 0.12.

For the variant S60I, the abundance fitness was -0.337 ± 0.22.

Consider S60L, for which the abundance fitness was -0.354 ± 0.075.

Consider S60K, for which the abundance fitness was -0.047 ± 0.063.

As for S60Y, the abundance fitness is -0.298 ± 0.11.

In the case of S60A, the abundance fitness is -0.064 ± 0.037.

In the case of S60H, the abundance fitness stood at 0.051 ± 0.084.

As to S60C, the abundance fitness was -0.098 ± 0.062.

On to S60G, for which the abundance fitness was -0.05 ± 0.034.

For S60P, the abundance fitness was -0.635 ± 0.084.

As for S60V, the abundance fitness is -0.352 ± 0.073.

As to S60T, the abundance fitness amounted to 0.012 ± 0.046.

S60Q: the abundance fitness turned out to be 0.023 ± 0.058.

For the variant S60D, the abundance fitness worked out at 0.191 ± 0.061.

Take S60E: the abundance fitness is 0.124 ± 0.042.
